{
  "source": "patent US20200230166A1",
  "about": "“Oligonucleotides in food, beverage, cosmetic and medicinal formulations” (DNA Essence GmbH, priority 2015, published 2020)",
  "molecules": {"B1": {"name": "SEQ ID NO: 1: growth hormone 1 (GH1) of Panthera tigris altaica (tiger) (nucleic acid)", "DNA": "ATGCCCTTGTCCAGTCTGTTTGCCAACGCCGTGCTCCGGGCCCAGCACCTGCACCAGCTGGCCGCCGACACCTACAAAGAGTTTGAGCGGGCGTACATCCCGGAGGGACAGAGGTATTCCATCCAGAACGCGCAGGCTGCCTTCTGCTTCTCGGAGACCATCCCGGCCCCCACGGGCAAGGACGAGGCCCAGCAGAGATCCGTGAGTGGCCAGGGGCGCCCGGCCAAGGATCAGGGGCCTCCCTCGTCTGCAGGAGTCAGGCCCTGGGCAGCCTTCTCCCTGGGGCCGAGGGTGTGCAGGGAGGCAGACTGGGCCTCTCCGTCCCTCTTCCCCTTTTTGCAGGAGCTGGAAGATGGCAGCCCCCGGGCCGGGCAGATCCTGAAGCAAACCTACGACAAGTTTGACACAAACTTGCGCAGTGACGACGCGCTGCTCAAGAACTATGGGCTCCTGTCCTGCTTCAAGAAGGACCTGCACAAGGCTGAGACGTACCTGCGGGTCATGAAGTGTCGCCGCTTCGTGGAAAGCAGCTGTGCTTTCTAG", "modifications": "Panthera tigris altaica"}},
  "format": "in vitro ADME",
  "protocol": "In order to simulate the effect of digestion and oligonucleotide uptake without human trials and without harming endangered species, in vitro gastro-intestinal digestion experiments were performed. […] In short, oral, gastric and intestinal passage were simulated by emulating their respective chemical and enzymatic compositions.\nThe integrity of the oligonucleotides after in vitro digestion was determined through realtime PCR. Quantification of full length genes was performed using the Applied\nBiosystems 7500 (Thermo Fisher Scientific Inc.) with the gScript™ One-Step SYBR® Green qRT-PCR Kit, ROX™ (QuantaBio Inc.) and oligonucleotide primers (Prim_SEQ1 for [ATGCCCTTGTCCAGTC], Prim_SEQ1 rev[CTAGAAAGCACAGCTG]) annealing (53° C.) at the ends of the full length gene. […] In order to simulate the in vitro passage of a traditional extract, a piece of dried beef meat (“beef jerky”, Bos taurus) was used and oligonucleotides for the corresponding growth factor 1 (GenBank: V00111.1) derived (for [acggctcagg gtccgtgaca], rev [ctaataaaat gaggaaattg]). Dried beef samples were rinsed in deionized, sterile water for 14 hours at 21° C. followed by an incubation with proteinase K (400 ng/mL, P2308 Sigma-Aldrich, USA) and guanidine hydrochloride (5 mol/L, CAS Number: 50-01-1) in 1 mL volume for 12 h at 55° C. […]",
  "data": [
    {"molecule": "B1", "values": [
      {"measurement": "detection of full length gene oligonucleotide by realtime PCR", "result": "easily detectable amounts"},
      {"measurement": "crossing point (CP) of full length oligonucleotide in realtime PCR", "setting": "after passing through the in vitro digestion assay, 1 million oligonucleotide molecules or more, of 40 cycles", "result": 23, "unit": "cycles"}
    ]}
  ]
}
